Measured values from PMC12142670.
pKd: −log10 of the molar value. Where two headings read alike, the source gives them in different places.

Tests used:
[1] = target: IgG4 heavy chain CH3 (Homo sapiens) [IgG part: P01861]; settings: cited from earlier work
[2] = target: hinge-deleted human IgG4 anti-epidermal growth factor receptor (EGFR) antibody (IgG4Δhinge), L368A variant (human); test: native MS; variable-temperature ESI native MS (vT-ESI-MS); 2.5 uM antibody in 150 mM ammonium acetate pH 7.5; continuous ramp from 30 to 100 °C at 2 °C/min; full noncovalent antibody to two half antibodies
[3] = target: hinge-deleted human IgG4 anti-epidermal growth factor receptor (EGFR) antibody (IgG4Δhinge), L368A variant (human); test: as above; remark: listed apart in the source
[4] = target: hinge-deleted human IgG4 anti-epidermal growth factor receptor (EGFR) antibody (IgG4Δhinge), R409K variant (human); test: as above

Chain of IgG4 heavy chain CH3 (P01861 218-328): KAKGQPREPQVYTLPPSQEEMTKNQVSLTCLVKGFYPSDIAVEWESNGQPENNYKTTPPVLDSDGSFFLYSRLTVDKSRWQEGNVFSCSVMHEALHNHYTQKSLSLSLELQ

## IgG4 heavy chain CH3 (from UniProt P01861)
[1]
  pKd: 7.30

## hinge-deleted human IgG4 anti-epidermal growth factor receptor (EGFR) antibody (IgG4Δhinge), L368A variant
[2]
  T1/2 (dissociation temperature of the full antibody into half antibodies): 53 °C
[3]
  T1/2 (dissociation temperature of the full antibody into half antibodies): 52 °C

## hinge-deleted human IgG4 anti-epidermal growth factor receptor (EGFR) antibody (IgG4Δhinge), R409K variant
[4]
  T1/2 (dissociation temperature of the full antibody into half antibodies): 77 °C
